We go through 22 molecules from patent US10618965 (dated 2020).

Residue numbers refer to the chain shown, from its start. Like-named read-outs stand apart in the source and are kept apart here.

One test deals with human FcgRIa (human). The test can be described thus: SPR.
Test [1] deals with T1, human FcgRIIb (human).
T1 chain: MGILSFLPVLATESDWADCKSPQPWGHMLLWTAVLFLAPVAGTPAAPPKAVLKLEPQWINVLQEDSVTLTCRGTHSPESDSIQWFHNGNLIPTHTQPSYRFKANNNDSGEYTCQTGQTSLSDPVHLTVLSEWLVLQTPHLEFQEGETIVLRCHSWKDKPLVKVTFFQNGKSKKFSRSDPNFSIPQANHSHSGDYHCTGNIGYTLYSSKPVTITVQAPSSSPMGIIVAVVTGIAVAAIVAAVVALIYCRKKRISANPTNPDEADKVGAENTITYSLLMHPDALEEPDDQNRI
Nature of the test: SPR.

For the next test, the target named is T2, human FcgRIIa(R) (human).
T2 chain: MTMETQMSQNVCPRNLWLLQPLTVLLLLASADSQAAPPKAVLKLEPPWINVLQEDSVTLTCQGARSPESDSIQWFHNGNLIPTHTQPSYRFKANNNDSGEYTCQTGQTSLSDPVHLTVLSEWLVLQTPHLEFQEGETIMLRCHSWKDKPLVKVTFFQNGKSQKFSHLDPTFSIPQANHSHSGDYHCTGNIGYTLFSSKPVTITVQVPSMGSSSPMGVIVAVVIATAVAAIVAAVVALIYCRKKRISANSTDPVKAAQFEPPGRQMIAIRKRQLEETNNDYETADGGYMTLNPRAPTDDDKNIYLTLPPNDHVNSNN
The test can be described thus: SPR.

Another test has as its target human FcgRIIIa(V) (human). Nature of the test: SPR.
In test [2] the target is human FcRn (with beta2-microglobulin) (human). Nature of the test: SPR, neutral pH.
Test [3] has the same target. The test can be described thus: SPR, pH 7.0.
The target is the same in test [4]. The test can be described thus: SPR, pH 7.0. This is another data set of the same source.
The target is the same in test [5]. The test can be described thus: SPR, pH 7.0. The source holds these as a separate data set.
Test [6] has as its target T1, human FcgRIIb. Nature of the test: SPR.
Test [7] concerns the target T1, human FcgRIIb. The test can be described thus: SPR.

Chain of human FcgRIa (human) (chain, as listed by the source): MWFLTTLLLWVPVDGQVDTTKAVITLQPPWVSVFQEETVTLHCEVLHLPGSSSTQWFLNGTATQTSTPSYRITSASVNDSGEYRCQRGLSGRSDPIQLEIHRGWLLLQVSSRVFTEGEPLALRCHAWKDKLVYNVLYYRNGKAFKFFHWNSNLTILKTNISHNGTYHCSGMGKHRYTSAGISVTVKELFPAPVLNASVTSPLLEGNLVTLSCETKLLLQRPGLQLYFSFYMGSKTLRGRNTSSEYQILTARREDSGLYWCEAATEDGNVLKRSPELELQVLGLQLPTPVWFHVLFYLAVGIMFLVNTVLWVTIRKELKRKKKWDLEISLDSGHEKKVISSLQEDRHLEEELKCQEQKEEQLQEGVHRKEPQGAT
Chain of human FcgRIIIa(V) (human) (chain, as listed by the source): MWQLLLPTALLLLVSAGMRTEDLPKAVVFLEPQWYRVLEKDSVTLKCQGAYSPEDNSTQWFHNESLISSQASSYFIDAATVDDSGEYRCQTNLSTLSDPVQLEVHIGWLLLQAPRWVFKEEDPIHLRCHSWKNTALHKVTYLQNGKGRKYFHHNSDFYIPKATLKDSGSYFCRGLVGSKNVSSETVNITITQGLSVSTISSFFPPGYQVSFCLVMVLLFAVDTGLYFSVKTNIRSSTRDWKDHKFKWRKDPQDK
Chain of human FcRn (with beta2-microglobulin) (human) (chain, as listed by the source, chain 1 of 2): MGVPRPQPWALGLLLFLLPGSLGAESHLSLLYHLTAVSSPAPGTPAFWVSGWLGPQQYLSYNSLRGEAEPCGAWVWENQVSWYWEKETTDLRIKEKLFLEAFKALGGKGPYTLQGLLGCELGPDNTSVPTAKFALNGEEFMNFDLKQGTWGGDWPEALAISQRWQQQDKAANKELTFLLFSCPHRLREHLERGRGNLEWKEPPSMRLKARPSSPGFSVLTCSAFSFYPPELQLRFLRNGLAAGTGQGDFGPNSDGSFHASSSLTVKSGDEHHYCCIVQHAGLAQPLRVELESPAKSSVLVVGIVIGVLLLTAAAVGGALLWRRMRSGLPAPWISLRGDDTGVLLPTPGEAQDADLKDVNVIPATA
Chain of human FcRn (with beta2-microglobulin) (human) (chain, as listed by the source, chain 2 of 2): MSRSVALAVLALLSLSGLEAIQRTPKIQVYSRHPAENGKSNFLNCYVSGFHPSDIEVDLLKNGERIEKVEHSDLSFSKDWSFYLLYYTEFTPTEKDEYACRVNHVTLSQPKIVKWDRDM

B1: IL6R-PD082 (antibody)
chain 1: QVQLQESGPGLVKPSETLSLTCAVSGHSISHDHAWSWVRQPPGEGLEWIGFISYSGITNYNPSLQGRVTISRDNSKNTLYLQMNSLRAEDTAVYYCARSLARTTAMDYWGEGTLVTVSSASTKGPSVFPLAPSSKSTSGGTAALGCLVKDYFPEPVTVSWNSGALTSGVHTFPAVLQSSGLYSLSSVVTVPSSSLGTQTYICNVNHKPSNTKVDKKVEPKSCDKTHTCPPCPAPELLGFDSVFLFPPKPKDTLYISRTPEVTCVVVDVSHEDPEVKFNWYVDGVEVHNAKTKPREEQYNSTYRVVSVLTVLHQDWLNGKEYKCKVSNKALPAPIEKTISKAKGQPREPQVYTLPPSRDELTKNQVSLTCLVKGFYPSDIAVEWESNGQPENNYKTTPPVLDSDGSFFLYSKLTVDKSRWQQGNVFSCSVMHEALHYHYTQKSLSLSP
chain 2: DIQMTQSPSSLSASVGDRVTITCRASQDISSYLNWYQQKPGKAPKLLIYYTSRLHSGVPSRFSGSGSGTDFTFTISSLQPEDIATYYCQQGNTLPYTFGQGTKVEIK
Take B1: the Kd in the test with human FcgRIa came to 0.052 µM; in the test with human FcgRIIb [1] it was 3.4 µM; with human FcgRIIa(R), 14 µM; with human FcgRIIIa(V), 43 µM.

B2: IL6R-PD079 (antibody)
chain 1: B1 chain 1 with F239A
chain 2: B1 chain 2
Take B2: the Kd turned out to be 0.14 µM with human FcgRIa, 3 µM in the test with human FcgRIIb [1], 32 µM with human FcgRIIa(R) and 37 µM with human FcgRIIIa(V).

B3: F38 (antibody)
chain 1: B1 chain 1 with F239G, D240P, S256T, Y436W
chain 2: not shown
B3 came in with a Kd in test [2] of 0.1 µM.

B4: IL6R-PD095 (antibody)
chain 1: B1 chain 1 with F239Y
chain 2: B1 chain 2
B4: the Kd in the test with human FcgRIa was found to be 0.093 µM; in the test with human FcgRIIb [1] it was 2.3 µM; with human FcgRIIa(R), 7.9 µM.

B5: F939 (antibody)
chain 1: B1 chain 1 with L237R, F239G, D240P, S241K, Y438V
chain 2: not shown
Regarding B5, the Kd was determined as 0.15 µM in test [3] and 0.153 µM in test [4].

B6: IgG1-F157 (antibody)
chain 1: B1 chain 1 with F239G, D240P, Y254M, P259A, V310P, M430L
chain 2: not shown
In [5], B6 returned a Kd of 0.15 µM.

B7: IL6R-PD094 (antibody)
chain 1: B1 chain 1 with F239W
chain 2: B1 chain 2
B7: the dissociation constant Kd in the test with human FcgRIa is 0.036 µM; with human FcgRIIb [1], 2.3 µM; with human FcgRIIa(R) it was 7.2 µM.

B8: IL6R-PD086 (antibody)
chain 1: B1 chain 1 with F239L
chain 2: B1 chain 2
In the case of B8, the Kd is 0.12 µM with human FcgRIa, 2.6 µM with human FcgRIIb [1], 18 µM with human FcgRIIa(R) and 41 µM with human FcgRIIIa(V).

B9: IgG1-v1 (antibody)
chain 1: not shown
chain 2: B1 chain 2
Take B9: the Kd with human FcgRIIb [6] and with human FcgRIIb [7] was 1.1 µM throughout.

B10: IL6R-PD080 (antibody)
chain 1: B1 chain 1 with F239A
chain 2: B1 chain 2
In the case of B10, the results for the Kd with human FcgRIa, with human FcgRIIb [1] and with human FcgRIIa(R) were 0.14 µM, 2 µM and 21 µM, respectively.

B11: F39 (antibody)
chain 1: B1 chain 1 with F239G, D240P, S256T
chain 2: not shown
For B11, in test [2], the Kd turned out to be 0.3 µM.

B12: F821 (antibody)
chain 1: B1 chain 1 with L237R, F239G, D240P, S241K
chain 2: not shown
Turning to B12, the Kd in test [3] came out at 0.31 µM.

B13: IgG1-v5 (antibody)
chain 1: B1 chain 1 with F239G, Y254M, S269E, L330F, Y436N
chain 2: B1 chain 2
Consider B13, for which the Kd with human FcgRIIb [6] came out at 0.45 µM.

B14: IL6R-PD042 (antibody)
chain 1: B1 chain 1 with L236W, F239G
chain 2: B1 chain 2
As for B14, the Kd in the test with human FcgRIa is 0.063 µM; with human FcgRIIb [1] it was 2 µM; in the test with human FcgRIIa(R) it was 16 µM.

B15: IgG1-F424 (antibody)
chain 1: B1 chain 1 with F239G, D240P, S241K, Y254M, P259A, V310P, M430L
chain 2: not shown
Regarding B15, binding in test [5] was characterised by a dissociation constant (Kd) of 0.094 µM.

B16: IgG1-v2 (antibody)
chain 1: not shown
chain 2: B1 chain 2
In the test with human FcgRIIb [7], B16 gave a Kd of 2.3 µM.

B17: F1009 (antibody)
chain 1: B1 chain 1 with L237R, F239G, D240P, S241K, T252V, T309Q, V310P, Q313A, Y438V
chain 2: not shown
For B17, the Kd in [3] and in test [4] was 0.012 µM each time.

B18: IgG1-v4 (antibody)
chain 1: not shown
chain 2: B1 chain 2
Molecule B18 returned a Kd in the test with human FcgRIIb [7] of 11 µM.

B19: IL6R-PD097 (antibody)
chain 1: B1 chain 1 with F239G, S241D
chain 2: B1 chain 2
B19: the Kd with human FcgRIa worked out at 0.0049 µM; with human FcgRIIb [1] it was 1.4 µM; with human FcgRIIa(R), 3.5 µM.

B20: IL6R-PD043 (antibody)
chain 1: B1 chain 1 with L236Y, F239G
chain 2: B1 chain 2
As for B20, the Kd stood at 0.075 µM with human FcgRIa, 1.6 µM in the test with human FcgRIIb [1] and 26 µM with human FcgRIIa(R).

B21: IL6R-PD087 (antibody)
chain 1: B1 chain 1 with F239M
chain 2: B1 chain 2
Regarding B21, the Kd in the test with human FcgRIa stood at 0.052 µM; with human FcgRIIb [1], 2.9 µM; in the test with human FcgRIIa(R), 22 µM; with human FcgRIIIa(V) it was 37 µM.

B22: IgG1-v3 (antibody)
chain 1: not shown
chain 2: B1 chain 2
In turn, B22 gave a Kd in the test with human FcgRIIb [6] of 0.013 µM.
